Data on one substance can be found in publication PMC5662623.

One experiment concerns the target adaptor protein AP-3. In words: GST pull-down from rat brain lysate, immunoblot band intensity quantification (anti-β-NAP). As to conditions: at least three independent experiments; parent: est. 1.0; read off a plot. Background: Immunoblotting shows a protein as a band on a membrane.
The target in a further experiment is adaptor protein AP-1. The experiment in a line: GST pull-down from rat brain lysate, immunoblot band intensity quantification (anti-adaptin γ). As to conditions: at least three independent experiments; parent: est. 1.0; read off a plot.

Turning to “GST fusion of the WT VGLUT2 C-terminus F518G; I519G”, the ratio to parent in the experiment with adaptor protein AP-3 worked out at 0.33; with adaptor protein AP-1, 0.59.
